For experiment [1], the target named is T1, recombinant FZD1 Fc protein (Biacore) (Homo sapiens (Human), UniProt Q9UP38 70-321, limits assumed).
T1 construct: also called Fzd Fc; not shown: Fc part, not described
Put plainly: SPR, Biacore 2000; Fzd Fc immobilized on CM5 chip, IgG 100 to 0.78 nM in solution. On the procedure: (§1) The KDs of 18R8 and 18R5 antibodies were determined using the Biacore 2000 system from Biacore Lifescience (GE Healthcare). Specifically, purified anti-Fzd7 antibodies were serially diluted in 2-fold increments from 100 to 0.78 nM in HBS-P (0.01 M HEPES pH 7.4, 0.15 M NaCl, 0.005% v/v Surfactant P20). Each dilution was tested against recombinant Fzd Fc proteins immobilized onto a CM5 Biacore chip. The association and dissociation rates were measured and KD values determined using the Biaevaluation software program (Table 5, below).
For orientation: Surface plasmon resonance follows binding to a sensor surface in real time, without labels.

Experiment [2] addresses T2, recombinant FZD2 Fc protein (Biacore) (Homo sapiens (Human), UniProt Q14332 24-250, limits assumed).
T2 construct: also called Fzd Fc; not shown: Fc part, not described
The description is as above. On the procedure:
as §1

A further experiment has as its target T3, FZD5-Fc (Homo sapiens (Human), UniProt Q13467 27-233, limits assumed).
T3 construct: also called recombinant FZD5 Fc protein; not shown: Fc part, not described
T3 sequence: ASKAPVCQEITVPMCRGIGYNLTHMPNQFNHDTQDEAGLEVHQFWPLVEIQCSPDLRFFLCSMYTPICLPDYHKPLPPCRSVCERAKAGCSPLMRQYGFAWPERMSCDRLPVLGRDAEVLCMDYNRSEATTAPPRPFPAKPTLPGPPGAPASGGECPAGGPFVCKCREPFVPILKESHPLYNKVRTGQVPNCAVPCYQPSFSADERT
The experiment is described as above. On the procedure:
as §1

In experiment [3] the target is T4, recombinant FZD7 Fc protein (Biacore) (Homo sapiens (Human), UniProt O75084 33-255, limits assumed).
T4 construct: also called Fzd Fc; not shown: Fc part, not described
The description is as above. On the procedure:
as §1

Experiment [4] addresses T5, human FZD6 expressed on transfected HEK293 cells (human, UniProt O60353 19-706).
T5 sequence: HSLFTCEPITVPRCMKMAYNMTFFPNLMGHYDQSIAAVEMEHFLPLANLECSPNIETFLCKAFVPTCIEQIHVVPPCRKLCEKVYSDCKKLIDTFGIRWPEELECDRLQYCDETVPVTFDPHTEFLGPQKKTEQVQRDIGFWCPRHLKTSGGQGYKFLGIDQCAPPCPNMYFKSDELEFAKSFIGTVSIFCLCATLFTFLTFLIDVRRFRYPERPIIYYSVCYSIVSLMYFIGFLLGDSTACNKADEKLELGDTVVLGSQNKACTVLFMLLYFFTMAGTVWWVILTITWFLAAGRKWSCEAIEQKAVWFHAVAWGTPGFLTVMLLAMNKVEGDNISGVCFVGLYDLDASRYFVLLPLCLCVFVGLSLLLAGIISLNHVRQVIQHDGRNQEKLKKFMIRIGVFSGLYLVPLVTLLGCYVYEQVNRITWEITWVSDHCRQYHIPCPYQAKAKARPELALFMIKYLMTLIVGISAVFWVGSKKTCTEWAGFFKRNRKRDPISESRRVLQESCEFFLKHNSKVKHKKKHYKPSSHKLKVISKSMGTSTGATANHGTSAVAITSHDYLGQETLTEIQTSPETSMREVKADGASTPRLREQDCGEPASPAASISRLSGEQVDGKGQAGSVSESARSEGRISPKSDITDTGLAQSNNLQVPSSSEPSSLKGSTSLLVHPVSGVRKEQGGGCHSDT
Put plainly: flow cytometry, HEK293 cells transiently co-transfected with FZD expression vector and GFP. On the procedure: To measure antibody binding to FZD by flow cytometry HEK293 cells were co-transfected with FZD expression vectors and the transfection marker GFP. Twenty-four to forty-eight hours post-transfection, cells were collected in suspension and incubated on ice with anti-FZD antibodies (10 μg/ml unless otherwise indicated) or control IgG to detect background antibody binding. The cells were washed and primary antibodies detected with Fc domain-specific secondary antibodies conjugated to a fluorescent chromophore (e.g. phycoerythrin conjugated anti-human IgG). Labeled cells were then analyzed by flow cytometry to identify anti-FZD antibodies that specifically recognize cell surface expression of FZD protein. Monoclonal antibodies 18R5 and 18R8 recognized FZD on transfected cells. As shown in FIG. 1 and FIG. 2, both 18R8 and 18R5 bind to multiple FZD including FZD1, FZD2, FZD5, FZD7, and FZD8. To examine the relative ability of 18R8 and 18R5 to bind to each FZD protein, titration analysis was conducted wherein the amount of antibody in the binding reaction was varied (FIG. 2).
For orientation: A flow cytometer gives signals particle by particle.

T1 sequence (Q9UP38 70-321 limits assumed): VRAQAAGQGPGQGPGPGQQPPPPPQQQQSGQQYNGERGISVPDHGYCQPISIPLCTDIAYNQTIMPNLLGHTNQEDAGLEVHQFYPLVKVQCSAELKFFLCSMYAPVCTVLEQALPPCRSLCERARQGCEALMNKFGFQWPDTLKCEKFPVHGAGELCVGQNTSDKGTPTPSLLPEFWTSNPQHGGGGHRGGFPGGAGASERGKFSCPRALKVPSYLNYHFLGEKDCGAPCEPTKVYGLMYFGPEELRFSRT
T2 sequence (Q14332 24-250 limits assumed): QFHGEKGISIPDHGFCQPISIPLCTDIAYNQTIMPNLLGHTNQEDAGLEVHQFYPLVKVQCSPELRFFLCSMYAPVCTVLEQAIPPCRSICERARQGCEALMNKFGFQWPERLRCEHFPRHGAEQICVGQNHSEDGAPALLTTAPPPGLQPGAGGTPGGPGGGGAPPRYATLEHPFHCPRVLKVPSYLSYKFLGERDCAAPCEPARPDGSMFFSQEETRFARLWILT

B1: 18R8 IgG antibody (human IgG2, lambda) (antibody, V domains shown)
VH: EVQLVESGGGLVQPGGSLRLSCAASGFTFSHYTLSWVRQAPGKGLEWVSVISGDGSYTYYADSVKGRFTISSDNSKNTLYLQMNSLRAEDTAVYYCARNFIKYVFANWGQGTLVTVSS
VL: DIELTQPPSVSVAPGQTARISCSGDKLGKKYASWYQQKPGQAPVLVIYEKDNRPSGIPERFSGSNSGNTATLTISGTQAEDEADYYCSSFAGNSLEVFGGGTKLTVLG
notes: Expressed in CHO cells, protein A purified; also called 18R8 IgG2 antibody; anti-FZD antibody 18R8
For orientation: Kd means a measure of binding affinity in units of concentration. Consider B1, for which the Kd in experiment [1] turned out to be 15.6 nM; in experiment [2], 6.2 nM; with FZD5-Fc, 4.2 nM; in experiment [3], 5.2 nM. In experiment [4], the binding result is reported as “no binding (tested: 10 ug/ml)”.

The values are drawn from patent US20130295106A1 (ONCOMED PHARMACEUTICALS, published 2013).
